Experimental data: PMC1240114

Target: tFKBP*3R (UniProt P62942 2-108, F37V;M50R;E55R;T86R)
Assay: filter binding

tFKBP*3R, sequence (P62942 2-108 F37V/M50R/E55R/T86R): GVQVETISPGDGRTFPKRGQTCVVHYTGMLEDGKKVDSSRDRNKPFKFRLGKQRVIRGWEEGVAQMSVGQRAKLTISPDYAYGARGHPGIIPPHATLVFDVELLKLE

B1: s23 U74C (structured_RNA)
RNA: GGGCAUUGGAUCGCAUUGUCAUUUCAUUGUGGCGGUGCAGUCAAAUGUGAUGCUUCGUUCAGUGACGGGAGGGCUGUGAGUGGUCUGAACGUAAGC
- Kd: 10.8 ± 3.8 nM
